The record followed here is patent US7794710.

The target in this assay is human B7-H1 (hB7-H1) on the cell surface (human) (UniProt Q9NZQ7). In words: cell-based or functional assay.

Some results are limits rather than exact numbers.

Chain of UniProt Q9NZQ7 (Q9NZQ7 19-290 limits assumed): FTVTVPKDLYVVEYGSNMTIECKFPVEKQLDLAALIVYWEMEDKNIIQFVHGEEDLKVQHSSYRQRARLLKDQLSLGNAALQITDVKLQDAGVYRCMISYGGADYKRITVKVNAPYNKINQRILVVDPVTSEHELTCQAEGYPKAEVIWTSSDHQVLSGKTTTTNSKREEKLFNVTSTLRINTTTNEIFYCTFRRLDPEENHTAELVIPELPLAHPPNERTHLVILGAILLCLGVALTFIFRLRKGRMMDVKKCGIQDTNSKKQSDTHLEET

As to 5H1 mAb specific for hB7-H1 (antibody), the inhibition of apoptosis of M15 CTL cultured with B7-H1/624mel cells was more than 50%.
